Ki and IC50 data for 2 substances are collected here from article PMC10319874 (Scientific Reports, 2023).

The target of this assay is rKgp (Porphyromonas gingivalis) (UniProt Q51817). Kind of assay: enzyme inhibition assay (chromogenic substrate).
Chain of rKgp (Porphyromonas gingivalis) (Q51817 25-1732): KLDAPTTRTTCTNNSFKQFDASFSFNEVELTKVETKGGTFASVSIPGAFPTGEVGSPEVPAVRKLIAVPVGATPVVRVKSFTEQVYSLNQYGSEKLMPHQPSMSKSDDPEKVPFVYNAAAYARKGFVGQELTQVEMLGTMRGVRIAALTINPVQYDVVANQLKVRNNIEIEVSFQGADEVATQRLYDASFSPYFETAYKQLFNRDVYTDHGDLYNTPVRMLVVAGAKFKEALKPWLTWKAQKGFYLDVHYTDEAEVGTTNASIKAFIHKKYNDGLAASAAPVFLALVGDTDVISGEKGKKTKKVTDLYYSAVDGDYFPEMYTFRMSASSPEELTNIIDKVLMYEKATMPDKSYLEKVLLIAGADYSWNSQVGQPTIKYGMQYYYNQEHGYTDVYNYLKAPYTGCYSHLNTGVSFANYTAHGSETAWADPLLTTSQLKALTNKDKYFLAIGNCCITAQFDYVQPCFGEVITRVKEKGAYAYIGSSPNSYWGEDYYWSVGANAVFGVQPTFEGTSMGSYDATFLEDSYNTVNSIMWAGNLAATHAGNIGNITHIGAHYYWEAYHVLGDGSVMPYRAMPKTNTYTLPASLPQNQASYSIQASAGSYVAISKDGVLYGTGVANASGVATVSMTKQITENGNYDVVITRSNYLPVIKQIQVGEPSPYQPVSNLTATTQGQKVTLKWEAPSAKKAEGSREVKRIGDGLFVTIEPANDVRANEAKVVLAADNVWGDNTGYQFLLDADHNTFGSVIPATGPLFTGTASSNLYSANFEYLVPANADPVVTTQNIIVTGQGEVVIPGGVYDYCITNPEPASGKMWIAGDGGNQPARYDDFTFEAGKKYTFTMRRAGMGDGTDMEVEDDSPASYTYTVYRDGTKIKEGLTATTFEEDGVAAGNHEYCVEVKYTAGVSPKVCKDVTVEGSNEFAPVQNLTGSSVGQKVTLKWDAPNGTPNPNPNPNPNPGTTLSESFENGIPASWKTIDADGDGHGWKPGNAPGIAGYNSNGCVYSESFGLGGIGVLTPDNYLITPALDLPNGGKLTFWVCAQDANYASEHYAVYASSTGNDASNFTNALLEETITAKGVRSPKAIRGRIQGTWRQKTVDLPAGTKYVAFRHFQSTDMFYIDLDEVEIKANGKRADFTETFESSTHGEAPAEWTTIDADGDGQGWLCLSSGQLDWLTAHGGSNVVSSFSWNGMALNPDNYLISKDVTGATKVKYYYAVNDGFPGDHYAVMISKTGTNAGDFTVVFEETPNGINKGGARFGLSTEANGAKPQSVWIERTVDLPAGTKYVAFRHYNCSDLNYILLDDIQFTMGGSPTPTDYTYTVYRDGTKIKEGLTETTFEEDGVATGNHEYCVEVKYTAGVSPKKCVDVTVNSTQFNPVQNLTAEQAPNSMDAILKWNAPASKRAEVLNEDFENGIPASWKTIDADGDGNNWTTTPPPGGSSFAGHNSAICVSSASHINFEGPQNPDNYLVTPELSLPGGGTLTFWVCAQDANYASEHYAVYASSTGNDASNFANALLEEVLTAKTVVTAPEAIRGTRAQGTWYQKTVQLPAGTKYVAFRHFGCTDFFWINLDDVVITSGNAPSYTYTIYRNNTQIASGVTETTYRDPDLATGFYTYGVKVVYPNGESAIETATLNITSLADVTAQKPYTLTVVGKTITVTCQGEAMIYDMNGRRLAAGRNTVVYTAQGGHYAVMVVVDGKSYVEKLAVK

In turn, “recombinant Kgp propeptide (rKgp-PP) (from UniProt Q51817) (domain or fragment)” came in with a Ki of 37.5 µM.
The substance “recombinant RgpB propeptide (rRgpB-PP) (from UniProt P95493 25-229) (domain or fragment)” returned an IC50 of 11 µM.
